Experimental data as given in patent US20040038883A1 (published 2004).
Each block holds one binder with its values, some of them ahead of it.

Tests used:
SGK = target: T1, SGK; assay: in vitro SGK kinase activity assay, 33P-ATP, Flash Plate
T1 chain: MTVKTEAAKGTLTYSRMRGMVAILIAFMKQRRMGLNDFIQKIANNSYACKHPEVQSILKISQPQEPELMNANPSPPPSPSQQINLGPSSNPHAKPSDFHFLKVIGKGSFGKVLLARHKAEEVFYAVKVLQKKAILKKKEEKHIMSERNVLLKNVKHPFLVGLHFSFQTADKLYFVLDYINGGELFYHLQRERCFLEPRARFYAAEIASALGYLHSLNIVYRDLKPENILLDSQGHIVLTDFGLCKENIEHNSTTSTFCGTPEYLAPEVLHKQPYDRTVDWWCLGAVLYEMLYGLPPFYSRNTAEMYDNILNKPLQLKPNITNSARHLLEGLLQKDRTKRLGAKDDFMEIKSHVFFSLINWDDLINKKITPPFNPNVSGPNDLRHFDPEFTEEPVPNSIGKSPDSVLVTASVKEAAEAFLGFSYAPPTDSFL

PKCδ = target: T2, PKCδ; assay: in vitro PKC delta kinase activity assay, 33P-ATP, Flash Plate
T2 construct: Bought enzyme; also called PKC delta

[1] = target: T3, Akt wild-type recombinant protein (Akt1) (Homo sapiens (Human), UniProt P31749 1-480, as many as five phosphorylations seen by ESI-MS (positions not stated)); assay: in vitro Akt1 kinase activity assay, biotinylated Bad-derived peptide substrate
T3 construct: also called Akt1 wild type

PKCγ = target: T4, PKCγ; assay: in vitro PKC gamma kinase activity assay, 33P-ATP, Flash Plate
T4 construct: Bought enzyme; also called PKC gamma

Cdc2 = target: T5, Cdc2; assay: in vitro CDC2 kinase activity assay, 33P-ATP, Flash Plate
T5 construct: Bought enzyme

PKA = target: T6, PKA; assay: in vitro PKA kinase activity assay, 33P-ATP, kemptide substrate, Flash Plate
T6 construct: Bought enzyme

Src = target: T7, Src; assay: in vitro Src kinase activity assay, 33P-ATP, Flash Plate
T7 construct: Bought enzyme

T3 sequence (P31749 other isoform, or with tags, fused parts or gaps limits assumed): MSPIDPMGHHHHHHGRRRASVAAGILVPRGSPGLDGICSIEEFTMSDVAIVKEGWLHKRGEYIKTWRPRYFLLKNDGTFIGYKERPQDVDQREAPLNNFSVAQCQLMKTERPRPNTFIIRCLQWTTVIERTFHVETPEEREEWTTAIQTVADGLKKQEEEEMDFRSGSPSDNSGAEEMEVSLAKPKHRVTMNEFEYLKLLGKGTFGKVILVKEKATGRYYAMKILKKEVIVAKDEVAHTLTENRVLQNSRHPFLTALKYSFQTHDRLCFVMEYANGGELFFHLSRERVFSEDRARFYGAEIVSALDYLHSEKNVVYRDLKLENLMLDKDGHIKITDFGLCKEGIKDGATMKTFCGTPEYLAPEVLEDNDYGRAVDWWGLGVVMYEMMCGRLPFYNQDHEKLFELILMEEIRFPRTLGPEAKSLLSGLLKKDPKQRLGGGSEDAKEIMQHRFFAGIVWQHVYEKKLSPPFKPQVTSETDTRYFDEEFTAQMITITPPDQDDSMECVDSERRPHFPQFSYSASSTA

Ki (SGK): 1 µM
Ki (PKCδ): > 42 µM
Ki [1]: 1.11 µM
Ki (PKCγ): > 30 µM
Ki (Cdc2): > 33 µM
Ki (PKA): > 34 µM
Ki (Src): > 33 µM
B1: Peptide 1 (peptide)
peptide: VELDPEFEPRARERTYSFGH

Ki (SGK): 12.5 µM
Ki (PKCδ): > 42 µM
Ki [1]: 0.095 µM
Ki (PKCγ): > 30 µM
Ki (Cdc2): > 33 µM
Ki (PKA): > 34 µM
Ki (Src): > 33 µM
B2: Peptide 4 (peptide)
peptide: VELDPEFEPRARERAYAFGH
notes: Made from peptide 2 by changing Thr at position 15 to Ala
